B1: proteinase k (enzyme, UniProt P06873 106-384, looked up)
chain: AAQTNAPWGLARISSTSPGTSTYYYDESAGQGSCVYVIDTGIEASHPEFEGRAQMVKTYYYSSRDGNGHGTHCAGTVGSRTYGVAKKTQLFGVKVLDDNGSGQYSTIIAGMDFVASDKNNRNCPKGVVASLSLGGGYSSSVNSAAARLQSSGVMVAVAAGNNNADARNYSPASEPSVCTVGASDRYDRRSSFSNYGSVLDIFGPGTSILSTWIGGSTRSISGTSMATPHVAGLAAYLMTLGKTTAASACRYIADTANKGDLSNIPFGTVNLLAYNNYQA
notes: proteinase K; printed molecular weight 28 kD; also called PRK
B2: subtilisin Carlsberg (enzyme, UniProt P00780 106-379, looked up)
chain: AQTVPYGIPLIKADKVQAQGFKGANVKVAVLDTGIQASHPDLNVVGGASFVAGEAYNTDGNGHGTHVAGTVAALDNTTGVLGVAPSVSLYAVKVLNSSGSGSYSGIVSGIEWATTNGMDVINMSLGGASGSTAMKQAVDNAYAKGVVVVAAAGNSGSSGNTNTIGYPAKYDSVIAVGAVDSNSNRASFSSVGAELEVMAPGAGVYSTYPTNTYATLNGTSMASPHVAGAAALILSKHPNLSASQVRNRLSSTATYLGSSFYYGKGLINVEAAAQ
notes: subtilisin Carlsberg; printed molecular weight 27 kD; also called SUC
B3: PnCHT, chymotrypsin-like serine protease of Pyrobaculum neutrophilum (enzyme, UniProt B1YBJ2 1-289, looked up)
chain: MDLSGLVEKVARSVVGVAARGVGAVGEGFGSAFAIDRGVYATAYHVVAQAGEVALITPEGEVADAVVAAADPAEDLAILYSDLYAVPLSLGSALRLRVGQGVVAVGFPLALLDKPTATFGIVSAVGRSLRAGDRFFEYLVQTDAAINPGNSGGPLVNLSGEAVGVCSAVIAGAQGLGFAVPIDLVRIMYQMVKRYGRYVRPALGVYVVALNKALKALYGLPTDRGLLVVDVVPSSPAEEMGIARGDILTKVDGREVANVFELRLLIGEALIQGRTPRIEVIRGGRRIEL
notes: chymotrypsin-like serine protease of Pyrobaculum neutrophilum, GenBank ACB40794.1; full length gene synthesized and cloned into pET-28a(+); printed molecular weight 36 kD; source: E. coli BL21 (DE3) CodonPlus, purified (nickel-chelating chromatography)
B4: Pnserpin (natural protein, Pyrobaculum neutrophilum, UniProt B1YBN4 1-393, looked up)
chain: MRLWALLPVTLALVVLLIFIVSLKEASTHSPPTSHTSAPAPLESGSYGDFAVSFYKRIALERLRENLVLSPYSVYKAFAMAYAGAAGETREEIGRVFGFGDDVCALAQAGRGVEEAVAAWVQLGFPLREEYERELSCLGAELRRVDFAERSALVEINRWIEEKTRGYVKDLIPTDYPRSQDIRVVLTSALFFNGSWWPLQFGRIGKREFQGVGPVEFMKLDLGSCVPSLRGRVSADLTVVELRFENTDVAMYVIMPKSLEDYVKGLTYEKLKRDITELPDEIVAVTMPLFTAEFKDSLKKVLIDIGIRSAFDKTRANFTRMSPIRIYIDEVFHGAYIKADEKGVVATAATAVVFVPVCAKVGGMEVVIDRPFLFVLADRRDGTIYFIGHVVKP

Assays:
Pnserpin [1] = target: B4; test: progress curve of protease inhibition; 40 °C; buffer B (100 mM HEPES-NaOH pH 7.5, 200 mM NaCl, 10 mM CaCl2, 0.01% triton X-100, 0.1% glycerol); 1 mM Suc-AAPF-pNA or MeO-SucAAPV-pNA as substrate; various concentrations of Pnserpin; absorption at 410 nm; kass = kunc × (1 + [S]/KM); conditions: both partners purified
Pnserpin [2] = target: B4; test: progress curve of protease inhibition; 80 °C; buffer B; 1 mM Suc-AAPF-pNA as substrate; various concentrations of Pnserpin; absorption at 410 nm; kass = kunc × (1 + [S]/KM); conditions: both partners purified
subtilisin Carlsberg = target: B2; test: cell-based or functional assay
[3] = target: porcine pancreatic elastase (porcine, UniProt P00772 27-266); test: cell-based or functional assay
porcine pancreatic elastase, sequence (P00772 27-266): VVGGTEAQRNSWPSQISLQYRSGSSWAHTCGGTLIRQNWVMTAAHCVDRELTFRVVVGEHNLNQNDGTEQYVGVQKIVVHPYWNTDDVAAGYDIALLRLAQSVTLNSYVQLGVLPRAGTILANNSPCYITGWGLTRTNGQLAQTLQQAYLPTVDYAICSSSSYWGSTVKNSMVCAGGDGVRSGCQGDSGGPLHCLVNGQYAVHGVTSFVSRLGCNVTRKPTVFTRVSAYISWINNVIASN

proteinase k = target: B1; test: cell-based or functional assay
bovine plasma thrombin = bovine plasma thrombin (bovine); test: cell-based or functional assay
[4] = target: bovine pancreatic trypsin (bovine); test: cell-based or functional assay
bovine pancreatic trypsin (bovine), sequence (P00760 24-246): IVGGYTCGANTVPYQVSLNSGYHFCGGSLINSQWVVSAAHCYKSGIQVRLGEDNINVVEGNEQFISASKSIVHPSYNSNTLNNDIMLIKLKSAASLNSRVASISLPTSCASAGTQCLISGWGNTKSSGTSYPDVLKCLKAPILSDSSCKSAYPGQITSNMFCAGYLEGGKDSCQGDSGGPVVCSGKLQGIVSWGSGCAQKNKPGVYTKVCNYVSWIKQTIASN

[5] = target: B3; test: cell-based or functional assay

Question: With B1 as the binder, how does the kon (Pnserpin [1]) read?
Answer: 198000 M⁻¹ s⁻¹

Question: With B2 as the binder, how does the kon (Pnserpin [1]) read?
Answer: 130000 M⁻¹ s⁻¹

Question: For B3, which kon (Pnserpin [2]) is on record?
Answer: 107000 M⁻¹ s⁻¹

Question: And the kon (Pnserpin [1])?
Answer: 39000 M⁻¹ s⁻¹

Question: Which results are given for B4?
Answer: stoichiometry of inhibition (SI), incubation at 20 °C; residual protease activity (subtilisin Carlsberg): 10; stoichiometry of inhibition (SI), incubation at 30 °C; residual protease activity (subtilisin Carlsberg): 8.76; stoichiometry of inhibition (SI), incubation at 40 °C; residual protease activity (subtilisin Carlsberg): 6.95; stoichiometry of inhibition (SI), incubation at 50 °C; residual protease activity (subtilisin Carlsberg): 5.34; stoichiometry of inhibition (SI), incubation at 60 °C; residual protease activity (subtilisin Carlsberg): 3.97; stoichiometry of inhibition (SI), incubation at 70 °C; residual protease activity (subtilisin Carlsberg): 2.67; stoichiometry of inhibition (SI), incubation at 20 °C; residual protease activity [3]: 10.1; stoichiometry of inhibition (SI), incubation at 30 °C; residual protease activity [3]: 9.33; stoichiometry of inhibition (SI), incubation at 40 °C; residual protease activity [3]: 7.9; stoichiometry of inhibition (SI), incubation at 50 °C; residual protease activity [3]: 7.41; stoichiometry of inhibition (SI), incubation at 60 °C; residual protease activity [3]: 4.84; stoichiometry of inhibition (SI), incubation at 70 °C; residual protease activity [3]: 2.74; stoichiometry of inhibition (SI), incubation at 20 °C; residual protease activity (proteinase k): 9.99; stoichiometry of inhibition (SI), incubation at 30 °C; residual protease activity (proteinase k): 7.39; stoichiometry of inhibition (SI), incubation at 40 °C; residual protease activity (proteinase k): 5.99; stoichiometry of inhibition (SI), incubation at 50 °C; residual protease activity (proteinase k): 4.69; stoichiometry of inhibition (SI), incubation at 60 °C; residual protease activity (proteinase k): 2.75; stoichiometry of inhibition (SI), incubation at 70 °C; residual protease activity (proteinase k): 2.28; stoichiometry of inhibition (SI), incubation at 20 °C; residual protease activity (bovine plasma thrombin): 21.1; stoichiometry of inhibition (SI), incubation at 30 °C; residual protease activity (bovine plasma thrombin): 15.2; stoichiometry of inhibition (SI), incubation at 40 °C; residual protease activity (bovine plasma thrombin): 12.2; stoichiometry of inhibition (SI), incubation at 50 °C; residual protease activity (bovine plasma thrombin): 9.31; stoichiometry of inhibition (SI), incubation at 20 °C; residual protease activity [4]: 10.2; stoichiometry of inhibition (SI), incubation at 30 °C; residual protease activity [4]: 6.14; stoichiometry of inhibition (SI), incubation at 40 °C; residual protease activity [4]: 5.16; stoichiometry of inhibition (SI), incubation at 50 °C; residual protease activity [4]: 2.53; stoichiometry of inhibition (SI), incubation at 20 °C; residual protease activity [5]: 32.7; stoichiometry of inhibition (SI), incubation at 40 °C; residual protease activity [5]: 23.9; stoichiometry of inhibition (SI), incubation at 60 °C; residual protease activity [5]: 19.8; stoichiometry of inhibition (SI), incubation at 80 °C; residual protease activity [5]: 11.3; stoichiometry of inhibition (SI), incubation at 100 °C; residual protease activity [5]: 6.82

From article PMC5297747, “Pnserpin: A Novel Serine Protease Inhibitor from Extremophile Pyrobaculum neutrophilum” (International Journal of Molecular Sciences, 2017)
